Among the data in the supplement of paper PMC10126150 are switch fluorescence ratio values, retold here.

± gives the standard deviation of the averaged measurements.

The data set relates to ATP. Put plainly: switch fluorescence ratio, 500 uM ATP over buffer (Cy3 cluster intensity, sum of 5 cycles each) (fold (ratio)); higher = stronger signal-on switching upon ATP binding; sequences stand for … in TCGTCGGCAGCGTCAGATGTGTATAAGAGACAGTTTTTTTTTTTTTTTTTTTTTTTTT…TC. The following applies: aptamer strand: ATP DNA aptamer (quencher-CACCTGGGGGAGTATTGCGGAGGAAGG + anchor), 100 nM annealed; ATP concentration: 500 uM. Put shortly: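 Values give the fluorescence ratio for each switch-domain sequence, averaged from per-cluster ratios of summed target-cycle to summed buffer-cycle Cy3 intensity. The Cy3-labelled switching-strand clusters sat on a modified Illumina MiSeq flow-cell, were annealed to 100 nM quencher-labelled ATP aptamer, and were imaged in selection buffer, then after 15 min with 500 uM ATP at 22 °C. Five cycles ran with NaOH stripping and re-annealing between them, and clusters outside 100-1000 RFU were excluded.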
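Also: ATP exposure 15 min at 22 °C before imaging.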

Turning to AGATTAGTAT, the switch fluorescence ratio stood at 1.02 ± 0.056.
With AGATTATGTT, the switch fluorescence ratio is 1.01 ± 0.029.
Consider AGATTCACTT, for which the switch fluorescence ratio was 1.01 ± 0.013.
Next, AGATTCAGAA: 0.947 ± 0.037; AGATTCCGCT: 1.108 ± 0.011; AGATTCGGTC: 1 ± 0.018.
Next, AGATTGGAGG: 0.957 ± 0.028; AGATTTAGGG: 0.986 ± 0.017; AGATTTATCG: 0.9781 ± 0.0027.
The result for AGATTTCATA reads 0.985 ± 0.02.
AGATTTGGGC: the switch fluorescence ratio came to 1.02 ± 0.031.
The result for AGATTTTTTG reads 0.9926 ± 0.0073; that for AGCAACATTG, 1.01 ± 0.06; that for AGCAAGGGGA, 1.07 ± 0.058.
As to AGCAATTGCT, the switch fluorescence ratio was found to be 1.05 ± 0.023.
For AGCACGCTGG, the switch fluorescence ratio came to 1.029 ± 0.0042.
The result for AGCACGTTCT reads 0.993 ± 0.1; that for AGCACTTTTC, 1.0192 ± 0.00082.
For the sequence AGCAGAAATC, the switch fluorescence ratio came out at 1.07 ± 0.039.
Take AGCAGACGGC: the switch fluorescence ratio came out at 1.03 ± 0.024.
Next, AGCAGGGGTG: 1.09 ± 0.013; AGCAGTGACT: 1.13 ± 0.036; AGCAGTGTGC: 0.9981 ± 0.0027.
The result for AGCATACGTT reads 1.16 ± 0.051.
Regarding AGCATATCGT, the switch fluorescence ratio stood at 1.04 ± 0.033.
The result for AGCATATGAA reads 1.02 ± 0.071; that for AGCATGGTTT, 1.02 ± 0.029.
The result for AGCATGTGGC reads 0.991 ± 0.016; that for AGCATTACCG, 1.165 ± 0.0045; that for AGCATTATCT, 1.09 ± 0.03.
Next, AGCATTTATA: 0.981 ± 0.016; AGCATTTTTG: 1.024 ± 0.0035; AGCCAGAGAC: 1.07 ± 0.036.
For AGCCAGATTC, the switch fluorescence ratio is 0.975 ± 0.036.
Next, AGCCAGGATT: 0.9722 ± 0.0083; AGCCATTATT: 0.976 ± 0.02; AGCCCCGGCT: 0.967 ± 0.045.
Turning to AGCCCGAGGG, the switch fluorescence ratio was 0.989 ± 0.065.
Next, AGCCCGTTTG: 0.964 ± 0.053; AGCCGCCGGG: 1.04 ± 0.013.
The result for AGCCGTGATG reads 1.06 ± 0.048.
Next, AGCCTTAATT: 1 ± 0.025; AGCCTTACGT: 1.115 ± 0.0039; AGCCTTTACA: 0.994 ± 0.011.
For AGCGAATTTT, the switch fluorescence ratio is 0.999 ± 0.017.
The result for AGCGAGGGGA reads 1.04 ± 0.02; that for AGCGAGTGGC, 0.991 ± 0.03.
The result for AGCGATAGTA reads 1.07 ± 0.019.
Next, AGCGATGCGG: 0.9867 ± 0.0023; AGCGATTATA: 0.991 ± 0.0037.
As for AGCGATTTTT, the switch fluorescence ratio was found to be 1.01 ± 0.053.
The result for AGCGCAATGA reads 3 ± 0.32; that for AGCGCATGTG, 0.996 ± 0.013.
Consider AGCGGAACCC, for which the switch fluorescence ratio amounted to 1.03 ± 0.023.
Next, AGCGGATTGT: 1 ± 0.02; AGCGGCATGT: 0.978 ± 0.077; AGCGGCCTG: 1.01 ± 0.056.
The result for AGCGGGGGAT reads 1.01 ± 0.027; that for AGCGGGGGGT, 1.03 ± 0.033.
With AGCGGGGGTA, the switch fluorescence ratio was 1.01 ± 0.034.
The result for AGCGGGGTTC reads 1.023 ± 0.0049.
As to AGCGGGTAGA, the switch fluorescence ratio is 0.986 ± 0.02.
AGCGGGTTAC: the switch fluorescence ratio came to 1.09 ± 0.06.
Next, AGCGGGTTCG: 1 ± 0.054.
The result for AGCGGTATGC reads 0.9804 ± 0.0073.
The result for AGCGGTTATT reads 1.004 ± 0.0044; that for AGCGGTTTTC, 0.994 ± 0.033.
Consider AGCGTAGAGC, for which the switch fluorescence ratio was found to be 1.03 ± 0.04.
As for AGCGTCATGC, the switch fluorescence ratio turned out to be 1.04 ± 0.048.
The result for AGCGTCGTTC reads 1.03 ± 0.023; that for AGCGTTTCCG, 0.99 ± 0.028.
The result for AGCGTTTCGC reads 0.996 ± 0.013; that for AGCTACGTCG, 0.942 ± 0.034.
AGCTACGTTT: the switch fluorescence ratio stood at 0.9963 ± 0.0053.
Next, AGCTAGCGAT: 1.02 ± 0.034.
The result for AGCTAGTCGC reads 1.01 ± 0.027; that for AGCTATTAAG, 0.9947 ± 0.0065.
Next, AGCTGAAGTT: 0.989 ± 0.036; AGCTGACGCT: 1.02 ± 0.025.
As for AGCTGACTGC, the switch fluorescence ratio came to 1.01 ± 0.025.
As for AGCTGATTGC, the switch fluorescence ratio was found to be 1 ± 0.02.
As for AGCTGCGACG, the switch fluorescence ratio was determined as 0.992 ± 0.044.
Next, AGCTGGGAAG: 0.982 ± 0.021; AGCTGGGGGA: 1.05 ± 0.015; AGCTGGTGGC: 1.01 ± 0.078.
The result for AGCTGTGACC reads 1 ± 0.012; that for AGCTGTTTC, 1 ± 0.018; that for AGCTTAAATT, 0.987 ± 0.018.
Next, AGCTTAGTTT: 0.975 ± 0.028; AGCTTCAAAT: 1 ± 0.017; AGCTTCATTC: 1.06 ± 0.057.
With AGCTTCTAAA, the switch fluorescence ratio was determined as 0.976 ± 0.022.
The result for AGCTTGGATA reads 1.017 ± 0.01; that for AGCTTTATGT, 1.02 ± 0.04.
The result for AGCTTTTTGA reads 0.966 ± 0.025; that for AGGAAAAAGC, 1.02 ± 0.028; that for AGGAAACGGG, 0.978 ± 0.018.
Next, AGGAAATTAT: 1.01 ± 0.029.
AGGAACGGGT: the switch fluorescence ratio is 0.9838 ± 0.0027.
The result for AGGAAGAAAG reads 1.042 ± 0.0089; that for AGGAAGTCTG, 1.03 ± 0.035; that for AGGAAGTGGG, 0.959 ± 0.028.
The result for AGGAATAGCG reads 1.021 ± 0.0061; that for AGGAATCCGG, 1.03 ± 0.026; that for AGGAATGGTC, 1.02 ± 0.051.
Next, AGGAATGTTT: 0.985 ± 0.0099; AGGAATTACG: 1.05 ± 0.041; AGGAATTGAA: 0.982 ± 0.028.
For AGGACCATGT, the switch fluorescence ratio stood at 1.01 ± 0.02.
Take AGGACGGGA: the switch fluorescence ratio is 1.03 ± 0.035.
The result for AGGACGGGAT reads 1.06 ± 0.056.
The result for AGGACGTCCA reads 0.989 ± 0.02.
The result for AGGACTGGGG reads 1.01 ± 0.037; that for AGGACTGTGT, 1.02 ± 0.04.
Turning to AGGACTTGTC, the switch fluorescence ratio came to 0.951 ± 0.01.
Next, AGGAGAGACC: 0.9848 ± 0.0029; AGGAGCGGTA: 1.1 ± 0.12.
Next, AGGAGCGGTT: 1.02 ± 0.061; AGGAGCTTGA: 1.03 ± 0.018.
Next, AGGAGGAGGA: 1.07 ± 0.065.
